According to FireProtDB (doi:10.1016/j.jmb.2004.06.079):

Conditions: Chloroflexus aurantiacus (strain ATCC 29366 / DSM 635 / J-10-fl), Thermal, CD, whole UniProt chain shown

B1: Malate dehydrogenase wild type, P80040 (protein)
chain: MRKKISIIGAGFVGSTTAHWLAAKELGDIVLLDFVEGVPQGKALDLYEASPIEGFDVRVTGTNNYADTANSDVIVVTSGAPRKPGMSREDLIKVNADITRACISQAAPLSPNAVIIMVNNPLDAMTYLAAEVSGFPKERVIGQAGVLDAARYRTFIAMEAGVSVEDVQAMLMGGHGDEMVPLPRFSTISGIPVSEFIAPDRLAQIVERTRKGGGEIVNLLKTGSAYYAPAAATAQMVEAVLKDKKRVMPVAAYLTGQYGLNDIYFGVPVILGAGGVEKILELPLNEEEMALLNASAKAVRATLDTLKSL
Tm (pH 4.4, sodium acetate 10 mM): 80.4 °C | Tm (pH 6, potassium phosphate 10 mM): 79.4 °C | Tm (pH 7.5, potassium phosphate 10 mM): 67.8 °C
